Series [1] concerns the molecule itself. Put plainly: FRET or BRET; subunit exchange as in a1, in the presence of ATP. For orientation: In BRET a luciferase serves as donor, and the signal depends on an acceptor being close.
Series [2] deals with the molecule itself. Kind of series: FRET or BRET; subunit exchange as in a1, in the presence of ADP.
Series [3] deals with the molecule itself. Put plainly: FRET or BRET; subunit exchange, dimer to monomers: ATTO 488 and ATTO 550 labeled proteins combined (400 nM each), rapidly mixed 1:1 with unlabeled protein (20 μM) in a stopped-flow device, 480 nm excitation, 590 nm cut-off filter; no nucleotide (apo).

For one protein, subunit exchange rate results are on record in PMC4428384, “Differences in conformational dynamics within the Hsp90 chaperone family reveal mechanistic insights” (Frontiers in Molecular Biosciences, 2014).

B1: hHsp90β-E20C,C366A,C412T,C521A,C564T,C589A,C590A, labeled with ATTO 488 or ATTO 550 (natural protein)
chain: not shown
modifications: ATTO 488 maleimide or ATTO 550 maleimide on the single cysteine (E20C)
notes: human Hsp90β; single cysteine variant with the natural cysteines replaced; Homodimeric protein; the rows are protomer with protomer
As for B1, the subunit exchange rate in series [1] was 0.01 s⁻¹; in series [2], 0.016 s⁻¹; in series [3], 0.016 s⁻¹.
